Literature values, collected in PMC6628625.
Read-outs that look alike come from different tables or passages of the source.

What was measured:
[1] = biological target: calmodulin (Homo sapiens) (UniProt P0DP23)
[2] = biological target: calmodulin (Homo sapiens) (UniProt P0DP23); remark: listed apart in the source

Substance	Kd [1] [nM]	Kd [2] [nM]
AC (adenylate cyclase toxin) (from UniProt P0DKX7)	0.2	–
EF (edema factor) (from UniProt P40136)	–	20
